Data reported in article PMC3458824, “Direct Observation of the Uptake of Outer Membrane Proteins by the Periplasmic Chaperone Skp” (PLoS ONE, 2012).

B2: Skp-E82C-Cy3 (natural protein, Escherichia coli, UniProt P0AEU7 21-161, looked up)
chain: ADKIAIVNMGSLFQQVAQKTGVSNTLENEFKGRASELQRMETDLQAKMKKLQSMKAGSDRTKLEKDVMAQRQTFAQKAQAFCQDRARRSNEERGKLVTRIQTAVKSVANSQDIDLVVDANAVAYNSSDVKDITADVLKQVK
modifications: Cy3 (Cy3-maleimide) on the introduced cysteine at 82
notes: Skp of Escherichia coli, each monomer 141 residues as printed; Extent of labeling greater than 90%; one dye on each of the three chains of the trimer; also called Cy3 labeled Skp mutant E82C; Skp-Cy3; source: E. coli BL21 (DE3), purified (Ni-NTA), labeled with Cy3-maleimide
B3: OmpC-L139C-Cy5 (natural protein, Escherichia coli, UniProt P06996 22-367, looked up)
chain: AEVYNKDGNKLDLYGKVDGLHYFSDNKDVDGDQTYMRLGFKGETQVTDQLTGYGQWEYQIQGNSAENENNSWTRVAFAGLKFQDVGSFDYGRNYGVVYDVTSWTDVLPEFGGDTYGSDNFMQQRGNGFATYRNTDFFGCVDGLNFAVQYQGKNGNPSGEGFTSGVTNNGRDALRQNGDGVGGSITYDYEGFGIGGAISSSKRTDAQNTAAYIGNGDRAETYTGGLKYDANNIYLAAQYTQTYNATRVGSLGWANKAQNFEAVAQYQFDFGLRPSLAYLQSKGKNLGRGYDDEDILKYVDVGATYYFNKNMSTYVDYKINLLDDNQFTRDAGINTDNIVALGLVYQF
modifications: Cy5 (Cy5-maleimide) on the introduced cysteine at 139
notes: Outer membrane protein OmpC of Escherichia coli; 346 residues as printed; Extent of labeling greater than 90%; also called Cy5 labeled OmpC mutant L139C; source: E. coli BL21 (DE3), purified (Ni-NTA) in 8 M urea, unfolded, labeled with Cy5-maleimide
B4: OmpC-D290C-Cy5 (natural protein, Escherichia coli, UniProt P06996 22-367, looked up)
chain: AEVYNKDGNKLDLYGKVDGLHYFSDNKDVDGDQTYMRLGFKGETQVTDQLTGYGQWEYQIQGNSAENENNSWTRVAFAGLKFQDVGSFDYGRNYGVVYDVTSWTDVLPEFGGDTYGSDNFMQQRGNGFATYRNTDFFGLVDGLNFAVQYQGKNGNPSGEGFTSGVTNNGRDALRQNGDGVGGSITYDYEGFGIGGAISSSKRTDAQNTAAYIGNGDRAETYTGGLKYDANNIYLAAQYTQTYNATRVGSLGWANKAQNFEAVAQYQFDFGLRPSLAYLQSKGKNLGRGYCDEDILKYVDVGATYYFNKNMSTYVDYKINLLDDNQFTRDAGINTDNIVALGLVYQF
modifications: Cy5 (Cy5-maleimide) on the introduced cysteine at 290
notes: Outer membrane protein OmpC of Escherichia coli; 346 residues as printed; Extent of labeling greater than 90%; also called Cy5 labeled OmpC mutant D290C; source: E. coli BL21 (DE3), purified (Ni-NTA) in 8 M urea, unfolded, labeled with Cy5-maleimide
B5: Skp-K55C-Cy3 (natural protein, Escherichia coli, UniProt P0AEU7 21-161, looked up)
chain: ADKIAIVNMGSLFQQVAQKTGVSNTLENEFKGRASELQRMETDLQAKMKKLQSMCAGSDRTKLEKDVMAQRQTFAQKAQAFEQDRARRSNEERGKLVTRIQTAVKSVANSQDIDLVVDANAVAYNSSDVKDITADVLKQVK
modifications: Cy3 (Cy3-maleimide) on the introduced cysteine at 55
notes: Skp of Escherichia coli, each monomer 141 residues as printed; Extent of labeling greater than 90%; one dye on each of the three chains of the trimer; also called Cy3 labeled Skp mutant K55C; Skp-Cy3; source: E. coli BL21 (DE3), purified (Ni-NTA), labeled with Cy3-maleimide

Assays:
[1] = target: Skp-K55C (Escherichia coli) (UniProt P0AEU7); assay: fluorescence correlation spectroscopy (FCS); Cy3 labeled OmpC in 8 M urea diluted dropwise into 50 mM PBS pH 7.0, 100 mM NaCl, 0.01% Tween 20 with 0.2 µM reduced Skp; molecular weight of the complex from the diffusion time with free Cy3 as reference
[2] = target: Skp-D128C (Escherichia coli) (UniProt P0AEU7); assay: as above
[3] = target: Skp-E82C (Escherichia coli) (UniProt P0AEU7); assay: as above
Skp-K55C-Cy3 = target: B5; assay: stopped-flow fluorescence (Cy3 self-quenching); OMP in 8 M urea mixed 1:20 with Cy3 labeled Skp mutant; both 0.03 µM final; 50 mM PBS pH 7.0, 100 mM NaCl, 0.01% Tween 20, 25°C; traces fitted to two or three exponentials; conditions: both partners purified
Skp-E82C-Cy3 = target: B2; assay: as above; conditions: both partners purified
Skp-D128C-Cy3 [4] = target: T1, Skp-D128C-Cy3 (Escherichia coli, UniProt P0AEU7 21-161, D128C, Cy3 (Cy3-maleimide) on the introduced cysteine at 128); assay: as above; conditions: both partners purified
T1 construct: Skp of Escherichia coli, each monomer 141 residues as printed; Extent of labeling greater than 90%; one dye on each of the three chains of the trimer; also called Cy3 labeled Skp mutant D128C; Skp-Cy3; source: E. coli BL21 (DE3), purified (Ni-NTA), labeled with Cy3-maleimide
T1 sequence (looked up): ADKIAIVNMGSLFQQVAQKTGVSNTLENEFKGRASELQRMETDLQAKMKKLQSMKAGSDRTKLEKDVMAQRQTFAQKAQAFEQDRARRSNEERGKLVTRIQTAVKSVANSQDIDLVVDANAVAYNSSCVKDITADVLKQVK

wild-type Skp = target: T2, wild-type Skp (Escherichia coli, UniProt P0AEU7 21-161); assay: cell-based or functional assay
T2 sequence (looked up): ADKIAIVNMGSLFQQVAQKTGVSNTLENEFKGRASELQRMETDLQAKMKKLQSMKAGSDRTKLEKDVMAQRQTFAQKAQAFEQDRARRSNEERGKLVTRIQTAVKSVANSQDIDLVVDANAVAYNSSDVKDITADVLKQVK

OmpC-D290C-Cy5 = target: B4; assay: FRET or BRET; stopped-flow FRET; Cy5 labeled OmpC mutant in 8 M urea mixed 1:20 with Cy3 labeled Skp mutant; both 0.03 µM final; 50 mM PBS pH 7.0, 100 mM NaCl, 0.01% Tween 20, 25°C; Cy5 emission, fitted to three exponentials; conditions: both partners purified
OmpC-L139C-Cy5 = target: B3; assay: as above; conditions: both partners purified
Skp-D128C-Cy3 [5] = target: T1, Skp-D128C-Cy3; assay: as above; conditions: both partners purified

Cy3 labeled OmpC (from UniProt P06996 22-367) (natural protein)
stoichiometry N [1]: 1 OmpC:Skp
stoichiometry N [2]: 1 OmpC:Skp
stoichiometry N [3]: 1 OmpC:Skp

B1: OmpC (natural protein, Escherichia coli, UniProt P06996 22-367, looked up)
chain: AEVYNKDGNKLDLYGKVDGLHYFSDNKDVDGDQTYMRLGFKGETQVTDQLTGYGQWEYQIQGNSAENENNSWTRVAFAGLKFQDVGSFDYGRNYGVVYDVTSWTDVLPEFGGDTYGSDNFMQQRGNGFATYRNTDFFGLVDGLNFAVQYQGKNGNPSGEGFTSGVTNNGRDALRQNGDGVGGSITYDYEGFGIGGAISSSKRTDAQNTAAYIGNGDRAETYTGGLKYDANNIYLAAQYTQTYNATRVGSLGWANKAQNFEAVAQYQFDFGLRPSLAYLQSKGKNLGRGYDDEDILKYVDVGATYYFNKNMSTYVDYKINLLDDNQFTRDAGINTDNIVALGLVYQF
notes: Outer membrane protein OmpC of Escherichia coli; 346 residues as printed; Kept unfolded in 8 M urea and diluted into the Skp solution (final urea 0.38 M in stopped-flow); the printed 346 residues fit the mature protein; also called wild-type OmpC; urea-denatured OmpC; source: E. coli BL21 (DE3), purified (Ni-NTA) in 8 M urea, unfolded
time constant τ1 of the first phase (Skp-K55C-Cy3): 82.6 ± 5.5 ms
time constant τ1 of the first phase (Skp-E82C-Cy3): 125 ± 7.8 ms
time constant τ1 of the first phase (Skp-D128C-Cy3 [4]): 188 ± 12 ms
aggregation of urea-denatured OmpC (1.5 µM) by light scatter at 380 nm, 25°C, with 0, 1.5, 4.5 and 7.5 µM wild-type Skp (wild-type Skp): 5 fold molar excess

B2
binding result (OmpC-D290C-Cy5): binds
binding result (OmpC-L139C-Cy5): binds

B3
time constant τ1 of the fast phase (Skp-D128C-Cy3 [5]): 208 ± 14 ms

B4
time constant τ1 of the fast phase (Skp-D128C-Cy3 [5]): 285 ± 19 ms

B5
binding result (OmpC-D290C-Cy5): binds
binding result (OmpC-L139C-Cy5): binds

B6: transmembrane domain of OmpA (domain or fragment, Escherichia coli)
chain: APKDNTWYTGAKLGWSQYHDTGFINNNGPTHENQLGAGAFGGYQVNPYVGFEMGYDWLGRMPYKGSVENGAYKAQGVQLTAKLGYPITDDLDIYTRLGGMVWRADTKSNVYGKNHDTGVSPVFAGGVEYAITPEIATRLEYQWTNNIGDAHTIGTRPDNGMLSLGVSYRFGQGEAA
notes: Transmembrane beta-barrel domain of outer membrane protein OmpA of Escherichia coli; PDB 2GE4 is named as the structure of this domain; also called OmpA-TMD; source: E. coli BL21 (DE3), purified (Ni-NTA) in 8 M urea, unfolded
time constant τ1 of the first phase (Skp-K55C-Cy3): 38.6 ± 2.7 ms
time constant τ1 of the first phase (Skp-E82C-Cy3): 61.7 ± 4.2 ms
time constant τ1 of the first phase (Skp-D128C-Cy3 [4]): 105 ± 7.3 ms

B7: OmpF (natural protein, Escherichia coli)
chain: AEIYNKDGNKVDLYGKAVGLHYFSKGNGENSYGGNGDMTYARLGFKGETQINSDLTGYGQWEYNFQGNNSEGADAQTGNKTRLAFAGLKYADVGSFDYGRNYGVVYDALGYTDMLPEFGGDTAYSDDFFVGRVGGVATYRNSNFFGLVDGLNFAVQYLGKNERDTARRSNGDGVGGSISYEYEGFGIVGAYGAADRTNLQEAQPLGNGKKAEQWATGLKYDANNIYLAANYGETRNATPITNKFTNTSGFANKTQDVLLVAQYQFDFGLRPSIAYTKSKAKDVEGIGDVDLVNYFEVGATYYFNKNMSTYVDYIINQIDSDNKLGVGSDDTVAVGIVYQF
notes: Outer membrane protein OmpF of Escherichia coli; probably the mature protein as for OmpC (surmise); also called wild-type OmpF; source: E. coli BL21 (DE3), purified (Ni-NTA) in 8 M urea, unfolded
time constant τ1 of the first phase (Skp-K55C-Cy3): 61.3 ± 4.9 ms
time constant τ1 of the first phase (Skp-E82C-Cy3): 182 ± 11 ms
time constant τ1 of the first phase (Skp-D128C-Cy3 [4]): 270 ± 16 ms
